From patent US20260125457A1 (Janssen / Centocor, published 2026)

What was measured:
[1] = target: T1, CALRdel52 (mutant calreticulin, 52 base pair deletion, Type 1) expressed with MPL on engineered cancer cells (UniProt P27797 18-417); experiment: cell-based or functional assay
T1 sequence (looked up): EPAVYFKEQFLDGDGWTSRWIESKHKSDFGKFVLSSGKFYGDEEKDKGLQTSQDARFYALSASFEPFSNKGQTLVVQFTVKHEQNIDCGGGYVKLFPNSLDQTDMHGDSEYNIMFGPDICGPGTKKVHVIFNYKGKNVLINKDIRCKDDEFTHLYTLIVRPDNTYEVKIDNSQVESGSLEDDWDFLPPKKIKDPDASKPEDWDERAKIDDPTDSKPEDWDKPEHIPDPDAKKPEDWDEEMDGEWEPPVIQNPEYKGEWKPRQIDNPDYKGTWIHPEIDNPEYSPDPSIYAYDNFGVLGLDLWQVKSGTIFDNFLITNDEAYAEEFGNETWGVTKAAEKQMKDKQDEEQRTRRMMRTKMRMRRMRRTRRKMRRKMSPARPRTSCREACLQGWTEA

[2] = target: T2, CALRins5 (mutant calreticulin, 5 base pair insertion, Type 2) expressed with MPL on engineered cancer cells (UniProt P27797 18-417); experiment: cell-based or functional assay
T2 sequence (looked up): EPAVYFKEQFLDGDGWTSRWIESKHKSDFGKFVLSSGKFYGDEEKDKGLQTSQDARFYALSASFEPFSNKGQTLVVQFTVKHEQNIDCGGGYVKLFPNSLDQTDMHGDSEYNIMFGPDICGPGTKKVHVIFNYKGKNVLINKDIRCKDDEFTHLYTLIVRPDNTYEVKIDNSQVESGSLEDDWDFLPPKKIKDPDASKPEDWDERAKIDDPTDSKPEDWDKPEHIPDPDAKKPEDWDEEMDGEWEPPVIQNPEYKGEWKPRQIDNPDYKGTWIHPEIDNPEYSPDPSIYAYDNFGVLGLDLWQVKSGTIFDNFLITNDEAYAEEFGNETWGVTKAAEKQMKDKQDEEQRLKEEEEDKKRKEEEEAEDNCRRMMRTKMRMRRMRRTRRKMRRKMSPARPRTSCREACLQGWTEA

[3] = target: T3, Flag/6xhis-CALRdel52 (CALRW12.007) (human, UniProt P27797 18-417); experiment: SPR, forced degradation: Release
T3 construct: also called human CALRdel52
T3 sequence (looked up): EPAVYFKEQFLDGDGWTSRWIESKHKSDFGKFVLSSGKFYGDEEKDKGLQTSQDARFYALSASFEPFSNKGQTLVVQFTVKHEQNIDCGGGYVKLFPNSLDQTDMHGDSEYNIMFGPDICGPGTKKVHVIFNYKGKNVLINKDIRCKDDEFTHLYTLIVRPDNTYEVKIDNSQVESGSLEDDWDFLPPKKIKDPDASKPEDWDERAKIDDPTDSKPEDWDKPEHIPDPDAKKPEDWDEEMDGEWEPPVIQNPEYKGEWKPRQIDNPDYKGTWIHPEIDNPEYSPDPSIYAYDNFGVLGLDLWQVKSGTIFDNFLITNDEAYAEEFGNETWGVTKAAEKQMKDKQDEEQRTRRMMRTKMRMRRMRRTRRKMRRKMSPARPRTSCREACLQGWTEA

[4] = target: T4, Avi/his-CalR-Ins5 (CALRW28.004) (human, UniProt P27797 18-417, limits assumed); experiment: SPR, forced degradation: Release
T4 construct: also called human CALRins5
T4 sequence (looked up): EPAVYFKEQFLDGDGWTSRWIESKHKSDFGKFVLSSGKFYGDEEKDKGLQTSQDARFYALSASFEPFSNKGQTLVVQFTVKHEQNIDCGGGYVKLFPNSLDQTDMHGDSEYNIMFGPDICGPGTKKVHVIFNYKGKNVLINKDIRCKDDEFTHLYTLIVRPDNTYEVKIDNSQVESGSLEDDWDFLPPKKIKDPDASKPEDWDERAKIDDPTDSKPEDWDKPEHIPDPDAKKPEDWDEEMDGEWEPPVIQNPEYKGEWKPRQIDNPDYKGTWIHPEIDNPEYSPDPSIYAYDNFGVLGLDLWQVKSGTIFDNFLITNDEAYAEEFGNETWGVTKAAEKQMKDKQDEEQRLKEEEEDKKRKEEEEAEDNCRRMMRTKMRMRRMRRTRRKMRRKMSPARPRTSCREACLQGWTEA

[5] = target: T5, CD3EG-HSA-6xHis (CD3W220.002) (human, UniProt P07766 22-118; P09693 23-103); experiment: SPR, forced degradation: Release
T5 construct: also called human CD3; not shown: human serum albumin (HSA); 6xHis tag
T5 sequence (P07766 other isoform, or with tags, fused parts or gaps): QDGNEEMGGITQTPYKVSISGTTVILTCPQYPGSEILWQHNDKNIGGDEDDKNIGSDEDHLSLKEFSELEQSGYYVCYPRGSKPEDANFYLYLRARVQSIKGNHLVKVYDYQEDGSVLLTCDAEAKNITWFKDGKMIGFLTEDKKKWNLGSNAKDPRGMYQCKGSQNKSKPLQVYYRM

[6] = target: T6, wild-type calreticulin (CALRwt) expressed with MPL in engineered cancer cells (UniProt P27797 18-417, limits assumed); experiment: flow cytometry on OCI-M2 MPL CALRwt cells, 1 h at 37 C, AF647 secondary antibody, Geometric Mean
T6 construct: whole, on cells; also called OCI-M2 MPL CALRwt
T6 sequence (looked up): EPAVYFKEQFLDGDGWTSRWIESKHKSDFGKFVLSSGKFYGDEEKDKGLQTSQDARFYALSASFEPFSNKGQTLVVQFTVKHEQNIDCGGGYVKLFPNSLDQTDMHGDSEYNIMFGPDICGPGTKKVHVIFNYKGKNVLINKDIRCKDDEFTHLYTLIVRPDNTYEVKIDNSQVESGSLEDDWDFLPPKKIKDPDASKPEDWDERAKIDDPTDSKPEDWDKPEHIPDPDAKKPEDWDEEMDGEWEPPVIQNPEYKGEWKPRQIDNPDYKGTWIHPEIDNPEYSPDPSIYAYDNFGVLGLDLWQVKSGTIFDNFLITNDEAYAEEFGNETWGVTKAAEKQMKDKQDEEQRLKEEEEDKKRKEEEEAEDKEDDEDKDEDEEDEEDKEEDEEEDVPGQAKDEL

[7] = target: T2, CALRins5 (mutant calreticulin, 5 base …); experiment: flow cytometry on ELF-153 MPL CALRins5 cells, 1 h at 37 C, AF647 secondary antibody, Geometric mean
Method: FIGS. 27A-27F depict binding of different CALRmutxCD3 antibodies to CALRmut-negative or CALRmut-positive cells. Flow cytometry was used to evaluate CALRmutxCD3 binding to CALRmut-negative and CALRmut-positive cancer cells in vitro. CALRmutxCD3 antibodies were tested on a panel of cell lines, engineered to express MPL and CALRmut, after 1 hour 37° C. incubation, with subsequent incubation with secondary AF647-labeled antibody. Geometric mean fluorescence intensity of AF647 was measured to determine antibody binding.

B1: C3CRB73 CALRmut x CD3 bispecific antibody (bispecific antibody, human IgG1, kappa, L234A L235A)
heavy: EVQLLESGGGLVQPGGSLRLSCAVSGIDLSNNAISWVRQAPGKGLEYVGVIGNTGDTYYADSAKGRFTISRDSSKTTLYLQMNSLRAEDTAVYFCVRGPPSYSSSVKNIWGQGTLVTVSSASTKGPSVFPLAPSSKSTSGGTAALGCLVKDYFPEPVTVSWNSGALTSGVHTFPAVLQSSGLYSLSSVVTVPSSSLGTQTYICNVNHKPSNTKVDKKVEPKSCDKTHTCPPCPAPEAAGGPSVFLFPPKPKDTLMISRTPEVTCVVVSVSHEDPEVKFNWYVDGVEVHNAKTKPREEQYNSTYRVVSVLTVLHQDWLNGKEYKCKVSNKALPAPIEKTISKAKGQPREPQVYTLPPSREEMTKNQVSLSCAVKGFYPSDIAVEWESNGQPENNYKTTPPVLDSDGSFFLVSKLTVDKSRWQQGNVFSCSVMHEALHNRFTQKSLSLSPGK
light: DIQMTQSPSSVSASVGDRVTITCQSSQSVYNNNWLSWLQQKPGKAPKRLIYDASKLESGVPSRFSGSGSGTDFTLTISSVQPEDAATYYCAGGFTGNVYTFGGGTKVEIKRTVAAPSVFIFPPSDEQLKSGTASVVCLLNNFYPREAKVQWKVDNALQSGNSQESVTEQDSKDSTYSLSSTLTLSKADYEKHKVYACEVTHQGLSSPVTKSFNRGEC
scFv: DIQMTQSPSSLSASVGDRVTITCRARQSIGTAIHWYQQKPGCAPKLLIKYASESISGVPSRFSGSGSGTDFTLTISSLQPEDFATYYCQQSGSWPYTFGQGTKLEIKGGGSGGSGGCPPCGGSGGEVQLVESGGGLVKPGGSLRLSCAASGFTFSRYNMNWVRQAPGKGLEWVSSISTSSNYIYYADSVKGRFTFSRDNAKNSLDLQMSGLRAEDTAIYYCTRGWGPFDYWGCGTLVTVSSEPKSSDKTHTCPPCPAPEAAGGPSVFLFPPKPKDTLMISRTPEVTCVVVSVSHEDPEVKFNWYVDGVEVHNAKTKPREEQYNSTYRVVSVLTVLHQDWLNGKEYKCKVSNKALPAPIEKTISKAKGQPREPQVYTLPPSREEMTKNQVSLWCLVKGFYPSDIAVEWESNGQPENNYKTTPPVLDSDGSFFLYSKLTVDKSRWQQGNVFSCSVMHEALHNHYTQKSLSLSPGK
notes: IgG1-AAS; also called JNJ-88549968; CALRB421 Fab x CD3 spFv
- % CD25+ CD8 T cells EC50 (nM), CALRmut patient blood, ELF-153 MPL CALRdel52 [1]: 2.46 nM
- % CD25+ CD8 T cells EC50 (nM), healthy donor blood, ELF-153 MPL CALRdel52 [1]: 1 nM
- % CD69+ CD8 T cells EC50 (nM), CALRmut patient blood, ELF-153 MPL CALRdel52 [1]: 3.06 nM
- % CD69+ CD8 T cells EC50 (nM), healthy donor blood, ELF-153 MPL CALRdel52 [1]: 0.88 nM
- % CD25+ CD8 T cells EC50 (nM), CALRmut patient blood, ELF-153 MPL CALRins5 [2]: 1.68 nM
- % CD25+ CD8 T cells EC50 (nM), healthy donor blood, ELF-153 MPL CALRins5 [2]: 0.53 nM
- % CD69+ CD8 T cells EC50 (nM), CALRmut patient blood, ELF-153 MPL CALRins5 [2]: 1.08 nM
- % CD69+ CD8 T cells EC50 (nM), healthy donor blood, ELF-153 MPL CALRins5 [2]: 0.41 nM
- % Active [3]: 100%
- Kd [3]: 0.0602 nM
- % Active [4]: 100%
- Kd [4]: 0.0331 nM
- % Active [5]: 100%
- Kd [5]: 0.214 nM
- binding result [6]: no binding (tested: 100 nM)
- EC50 (read off the curve) [7]: ~5 nM
